Assay results from IntAct's records for PubMed 20581825.

B1: Periplasmic serine endoprotease DegP (Escherichia coli (strain K12)), P0C0V0 (parent)
chain: MKKTTLALSALALSLGLALSPLSATAAETSSATTAQQMPSLAPMLEKVMPSVVSINVEGSTTVNTPRMPRNFQQFFGDDSPFCQEGSPFQSSPFCQGGQGGNGGGQQQKFMALGSGVIIDADKGYVVTNNHVVDNATVIKVQLSDGRKFDAKMVGKDPRSDIALIQIQNPKNLTAIKMADSDALRVGDYTVAIGNPFGLGETVTSGIVSALGRSGLNAENYENFIQTDAAINRGNSGGALVNLNGELIGINTAILAPDGGNIGIGFAIPSNMVKNLTSQMVEYGQVKRGELGIMGTELNSELAKAMKVDAQRGAFVSQVLPNSSAAKAGIKAGDVITSLNGKPISSFAALRAQVGTMPVGSKLTLGLLRDGKQVNVNLELQQSSQNQVDSSSIFNGIEGAEMSNKGKDQGVVVNNVKTGTPAAQIGLKKGDVIIGANQQAVKNIAELRKVLDSKPSVLALNIQRGDSTIYLLMQ
partner: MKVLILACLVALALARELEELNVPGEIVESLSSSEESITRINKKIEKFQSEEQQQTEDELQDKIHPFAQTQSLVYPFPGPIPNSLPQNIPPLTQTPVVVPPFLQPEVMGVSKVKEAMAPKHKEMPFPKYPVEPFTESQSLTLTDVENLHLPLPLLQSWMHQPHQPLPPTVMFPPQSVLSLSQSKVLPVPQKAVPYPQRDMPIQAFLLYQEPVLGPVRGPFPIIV

Variants of: B1
Conditions: with casb_bovin CSN2, P02666

| Variant | effect of a mutation on the interaction |
| --- | --- |
| L291W | disrupting interaction |
| R351A;Q353A | disrupting interaction |

Variants of: B1
Conditions: with casb_bovin CSN2, P02666
Remark: another data set of the same source

| Variant | effect of a mutation on the interaction |
| --- | --- |
| R351A;Q353A | decreasing interaction |
| R213A | disrupting interaction |
